# From patent US9044511B2, “Peptide” (Marealis AS, priority 2010, dated 2015)
# Values joined by “and” are separate entries in the source; they are usually repeats but may differ in a detail not shown here. Equal entries are not always repeated. Where two headings read alike, the source gives them in different places. Peptide text beside a SMILES is read from it.
# T1: ACE (Sigma A 6778) (Oryctolagus cuniculus, UniProt P12822)
# T1 construct: purchased Sigma A 6778
# T1 sequence (P12822 34-1310): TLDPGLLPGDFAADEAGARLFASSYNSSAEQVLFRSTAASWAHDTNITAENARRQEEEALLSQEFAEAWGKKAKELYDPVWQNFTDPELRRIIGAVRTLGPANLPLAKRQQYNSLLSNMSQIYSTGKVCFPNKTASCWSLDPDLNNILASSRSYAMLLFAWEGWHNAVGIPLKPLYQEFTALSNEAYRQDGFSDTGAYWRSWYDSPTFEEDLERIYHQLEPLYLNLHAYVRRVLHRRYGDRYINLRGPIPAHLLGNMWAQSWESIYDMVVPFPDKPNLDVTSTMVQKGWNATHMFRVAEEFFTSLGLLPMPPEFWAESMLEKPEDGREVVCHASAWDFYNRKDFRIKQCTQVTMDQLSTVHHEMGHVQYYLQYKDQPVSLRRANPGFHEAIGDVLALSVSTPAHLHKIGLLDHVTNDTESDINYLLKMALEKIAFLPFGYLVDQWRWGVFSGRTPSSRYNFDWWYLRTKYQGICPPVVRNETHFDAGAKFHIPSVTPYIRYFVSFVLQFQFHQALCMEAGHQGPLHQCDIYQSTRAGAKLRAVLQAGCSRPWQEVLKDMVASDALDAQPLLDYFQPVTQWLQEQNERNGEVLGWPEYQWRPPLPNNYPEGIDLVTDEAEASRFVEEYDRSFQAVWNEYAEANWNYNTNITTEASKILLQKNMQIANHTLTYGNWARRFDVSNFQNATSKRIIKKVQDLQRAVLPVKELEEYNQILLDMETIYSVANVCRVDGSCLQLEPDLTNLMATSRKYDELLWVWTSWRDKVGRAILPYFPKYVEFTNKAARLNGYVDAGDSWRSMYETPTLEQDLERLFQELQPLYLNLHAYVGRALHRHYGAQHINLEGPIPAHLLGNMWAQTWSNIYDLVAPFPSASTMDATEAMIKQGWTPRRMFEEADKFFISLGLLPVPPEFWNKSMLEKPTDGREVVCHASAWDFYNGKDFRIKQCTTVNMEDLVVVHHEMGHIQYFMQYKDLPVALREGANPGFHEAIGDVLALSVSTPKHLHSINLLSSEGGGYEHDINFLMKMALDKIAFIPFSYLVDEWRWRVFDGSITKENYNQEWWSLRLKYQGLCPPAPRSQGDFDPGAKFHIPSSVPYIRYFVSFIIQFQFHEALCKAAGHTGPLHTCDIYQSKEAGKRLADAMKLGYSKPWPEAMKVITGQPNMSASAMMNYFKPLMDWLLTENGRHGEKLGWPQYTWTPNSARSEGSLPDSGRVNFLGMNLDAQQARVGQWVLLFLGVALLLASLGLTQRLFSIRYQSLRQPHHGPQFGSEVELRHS
# T2: Angiotensin I-converting enzyme (ACE) (Sigma A 6778) (UniProt P12822 34-1310, limits assumed)
# T2 sequence (looked up): T1 sequence (P12822 34-1310)
# T3: ACE from rabbit lung acetone extract (rabbit, UniProt P12822 34-1310, limits assumed)
# T3 sequence (looked up): T1 sequence (P12822 34-1310)
# Tests used:
# ACE (Sigma A 6778) = target: T1, ACE (Sigma A 6778); assay: ACE-inhibitory activity, HHL substrate, hippuric acid by HPLC (method of Dragnes et al. / Cushman and Cheung); format: biochemical
# Excerpt: ACE-inhibitory activity may be assayed using known methods, for example based on the method reported by Cushman and Cheung (1971) by measuring the end product hippuric acid (HA) from the enzymatic reaction between ACE (Sigma A 6778) and the substrate HHL (Sigma H 1635). (CUSHMAN, D. W. & CHEUNG, H. S. (1971). Concentrations of Angiotensin-Converting Enzyme in Tissues of Rat. Biochimica Et Biophysica Acta 250(1), 261-265 and Dragnes et al. J Food Composition and Analysis 2009; 22: 714-17). A different suitable assay is disclosed by Vermeirssen et al. (2002), J. Biochem Biophys. Methods 51 (2002), pages 75-87, which is incorporated herein by reference. Briefly, this is a spectrophotometric method in which ACE inhibition is measured using the substrate furanacryloyl-Phe-Gly-Gly and rabbit lung acetone extract as the ACE source. The IC50 may be determined.
# An FSY peptide was analysed via an enzyme assay wherein ACE produces hippuric acid (HA) from the substrate hippuryl-histidine-leucine (HHL). The HA concentration was determined by quantitative HPLC analyses and a decreased concentration was correlated with inhibitory effect. ACE-inhibitory activity was determined based on the method reported by Cushman and Cheung (1971) by measuring the end product hippuric acid (HA) from the enzymatic reaction between ACE (Sigma A 6778) and the substrate HHL (Sigma H 1635), essentially as described in Dragnes et al. J Food Composition and Analysis 2009; 22: 714-17. A 100 μl volume with 2 mM HHL in 100 mM sodium borate buffer pH 8,3 was pre-incubated at 37° C. for 30 minutes with 25 μl inhibitor (FSY peptide diluted in Sodium borate buffer). Then the assay was initiated by adding 50 μl ACE (10 mU). The enzymatic reaction was stopped by addition of 215 μl 1 M HCl.
# Quantitative HPLC analyses were performed on a Shimadzu (Shimadzu Corporation, Japan), using a Symmetry-Shield reverse phase C-18 Intelligent Speed column. The HA was eluted at ambient temperature using a mobile phase that consisted of 0.05% aqueous trifluoroacetic acid and HPLC-grade acetonitrile. A 2 min linear gradient was used, beginning after 0.5 min isocratic elution with 5% acetonitrile and ending with 90% acetonitrile. The flow-rate was maintained at 2 mL min ? 7 1 and the UV absorption was measured at 228 nm.
# Determinations of IC50 values depend on the precise assay conditions, which makes it difficult to make meaningful comparisons between IC50 values determined in separate assays. A comparative analysis was therefore carried out to compare the ACE-inhibitory activity of the FSY peptide to known ACE-inhibitory peptides. ACE-inhibitory activity was assayed using the method of Dragnes et al. described in Example 1.
# [1] = target: T2, Angiotensin I-converting enzyme (ACE) …; assay: cell-based or functional assay
# [2] = target: T2, Angiotensin I-converting enzyme (ACE) …; assay: cell-based or functional assay; remark: listed apart in the source
# [3] = target: T3, ACE from rabbit lung acetone extract; assay: cell-based or functional assay
# [4] = comparative analysis, read-out: IC50 in μg/ml (converted)
IC50 (ACE (Sigma A 6778); [4]),"IC50 in µM (ACE inhibition, method of Dragnes et al.) [1]","IC50 in µg/ml (ACE inhibition, method of Dragnes et al.) [1]",IC50 of ACE inhibition (method of Vermeirssen et al.) [3],also measured,Molecule
2.17 µM,,,,"IC50 (ACE (Sigma A 6778); comparative analysis, read-out: IC50): 2.2 µM; IC50 (ACE (Sigma A 6778); typical measurements, read-out: IC50 with respect to ACE inhibition, method of Dragnes et al.): ~2.2 µM",N[C@@H](Cc1ccccc1)C(=O)N[C@@H](CO)C(=O)N[C@@H](Cc1ccc(O)cc1)C(=O)O [FSY] (H-Phe-Ser-Tyr-OH; N-terminus and C-terminus assumed)
12.8 µM,,,,,"CC(C)[C@H](N)C(=O)N[C@@H](Cc1ccc(O)cc1)C(=O)O [VY, reference compound] (H-Val-Tyr-OH; N-terminus and C-terminus assumed)"
,13 µM,3.6 µg/mL,,,VY
,2.2 µM,0.9 µg/mL,~7.7 µM,"IC50 of ACE inhibition (hippuric acid from HHL, HPLC; method of Dragnes et al.) [2]: ~4 µM and 1.7 µM and ~2.2 µM",FSY [FSY peptide]
,3.2 µM,1.04 µg/mL,,,IPP
,,,~274 µM,IC50 of ACE inhibition (method of Dragnes et al.) [2]: ~59 µM,FTY [FTY peptide]
